Source: paper doi:10.1101/2025.07.08.663703, “Recruitment of Mre11 to recombination sites during meiosis” (bioRxiv, 2025)

Target: T1, yeast Smt3 (Smt3 6xHis) (yeast, UniProt Q12306 1-101 = SUMO)
T1 construct: Smt3 (SUMO), yeast; Uniformly 13C,15N labelled for the NMR experiments; also called SUMO; U-[13C,15N]; Smt3; source: E. coli BL21 (DE3)pLysS, purified (Ni-NTA)
Test: ITC; 2 mM peptide in the syringe, 150 μM or 300 μM Smt3 in the cell; 20 mM NaPi 100 mM NaCl pH 7.5, 10% DMSO, 25°C; single binding site model
Settings: both partners purified

T1 sequence (Q12306 whole entry): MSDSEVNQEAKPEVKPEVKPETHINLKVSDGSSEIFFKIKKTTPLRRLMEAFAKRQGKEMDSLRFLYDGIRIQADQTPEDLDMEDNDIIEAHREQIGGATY

Binder: ENDIIMVSTDE [synthetic Mre11-SIM3 peptide, wild type]
- Kd: 20 ± 10 µM
